From US20020110800A1, “Use of SHP-1 and SHP-2 to detect compounds involved in neuronal survival” (McGill University, priority 1997, published 2002) come the findings set out here.

Targets include TrkA Y490/785F (UniProt P04629); TrkA Y490F (UniProt P04629); TrkA Y785F (UniProt P04629).
Test in all cases: cell-based or functional assay
Assay [1] has as its target wild-type TrkA, baculovirus-expressed, activated (autophosphorylated) (UniProt P04629).

As for SHP-1 (enzyme), the Trk tyrosine dephosphorylation on co-expression in insect cells (anti-pTyr blot) (in assay [1]; in the assay with TrkA Y490/785F; in the assay with TrkA Y490F; with TrkA Y785F) was 8 fold in each case. Moreover, the dephosphorylation of Trk at Y674/Y675 (phospho-specific anti-Trk antibodies, co-expression in insect cells) in assay [1] was determined as 10 fold.
